# Laboratory results reported in article PMC4169592.
# Target: EGFP-Vinexin β (mouse)
# Test: FRET or BRET; acceptor photobleaching FRET in stress granules of live COS-7 cells; EGFP donor, mCherry RFP acceptor
substance,measurement,value
RFP-CPEB4 (natural protein),FRET efficiency,14.5%
